For the series, the target named is T1, RIG-I (recombinant) (human? (GeneID 23586), UniProt O95786 1-925).
T1 sequence: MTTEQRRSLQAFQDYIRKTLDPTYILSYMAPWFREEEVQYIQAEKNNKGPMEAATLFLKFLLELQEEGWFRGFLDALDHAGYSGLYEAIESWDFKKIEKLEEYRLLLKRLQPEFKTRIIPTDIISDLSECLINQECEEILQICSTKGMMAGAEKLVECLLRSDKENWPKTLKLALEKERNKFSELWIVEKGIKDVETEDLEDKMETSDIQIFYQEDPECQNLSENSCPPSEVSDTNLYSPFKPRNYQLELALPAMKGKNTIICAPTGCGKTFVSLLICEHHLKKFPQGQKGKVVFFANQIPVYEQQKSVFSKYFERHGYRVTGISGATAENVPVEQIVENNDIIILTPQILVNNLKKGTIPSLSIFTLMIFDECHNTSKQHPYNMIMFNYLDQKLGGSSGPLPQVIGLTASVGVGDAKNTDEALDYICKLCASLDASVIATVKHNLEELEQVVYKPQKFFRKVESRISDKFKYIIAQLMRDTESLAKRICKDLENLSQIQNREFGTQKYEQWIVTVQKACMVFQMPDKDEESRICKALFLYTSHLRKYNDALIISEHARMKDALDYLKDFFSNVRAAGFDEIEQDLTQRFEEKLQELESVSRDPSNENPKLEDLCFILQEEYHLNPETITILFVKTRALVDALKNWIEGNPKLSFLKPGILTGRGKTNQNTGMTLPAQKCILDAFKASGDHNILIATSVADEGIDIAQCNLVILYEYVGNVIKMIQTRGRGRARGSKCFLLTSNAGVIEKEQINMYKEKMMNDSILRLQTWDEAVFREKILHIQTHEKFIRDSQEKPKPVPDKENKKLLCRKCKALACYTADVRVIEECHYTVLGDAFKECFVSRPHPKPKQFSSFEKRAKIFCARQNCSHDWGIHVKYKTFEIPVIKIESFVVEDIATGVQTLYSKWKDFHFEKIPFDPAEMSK
In words: EMSA. For orientation: In EMSA bound probe runs differently from free probe, usually more slowly.

The term Kd denotes the concentration at which binding is half-saturated.

B1: 5'-pppA synthetic 24 bp dsRNA (dsRNA)
RNA 1: AGCAAAAGCAGGGUGACAAAGACA
RNA 2: UGUCUUUGUCACCCUGCUUUUGCU
modifications: 5'-ppp on sense strand only
For the molecule B1, the Kd amounted to 0.4 nM.

Source of the values: article doi:10.1101/2023.12.22.573000.
